In US20180155451A1 (published 2018):
Numbering of substitutions follows the chain as printed. Numbers in names are those of the source.

T1: FcgRIIb (human, UniProt P31994 43-217)
T1 construct: extracellular domain; also called FcγRIIb; not shown: His tag attached to the C terminus
T1 sequence (looked up): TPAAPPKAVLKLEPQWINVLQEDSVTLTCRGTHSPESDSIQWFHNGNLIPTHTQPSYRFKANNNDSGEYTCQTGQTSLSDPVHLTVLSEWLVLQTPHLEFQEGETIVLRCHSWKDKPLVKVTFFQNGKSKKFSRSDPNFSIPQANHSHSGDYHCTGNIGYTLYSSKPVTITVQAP

T2: FcγRIIb extracellular domain with C-terminal His tag (human, UniProt P31994 43-217)
T2 construct: extracellular domain; Soluble receptor expressed in FreeStyle293 cells, used as analyte in Biacore; also called FcgRIIb; CD32B; not shown: His tag at the C terminus
T2 sequence (looked up): T1 sequence (looked up)

B1: H240-Kn061 (Y235T)/H240-Hl071/L73-k0 (antibody, human IgG1, kappa)
heavy 1: QDQLVQSGAEVKKPGASVKVSCKASGFNIKDTYIQWVRQAPGQGLEWMGRIDPLRKQTKYREKFEGRVTITADTSTNTAYMELSSLRSEDTAVYYCVRSGREFDYWGQGTLVTVSSASTKGPSVFPLAPSSKSTSGGTAALGCLVKDYFPEPVTVSWNSGALTSGVHTFPAVLQSSGLYSLSSVVTVPSSSLGTQTYICNVNHKPSNTKVDKKVEPKSCDKTHTCPPCPAPEYTWGPSVFLFPPKPKDTLMISRTPEVTCVVVDVSDEDPEVKFNWYVDGVEVHNAKTKPREEQYNATYRVVSVLTVLHQDWLNGKEYKCKVSNKALPAPIEKTISKAKGQPREPQVCTLPPSRDELTKNQVSLWCLVKGFYPSDIAVEWESNGQPENNYKTTPPVLDSDGSFFLYSKLTVDKSRWQQGNVFSCSVMHEALHNHYTQKSLSLSP
heavy 2: QDQLVQSGAEVKKPGASVKVSCKASGFNIKDTYIQWVRQAPGQGLEWMGRIDPLRKQTKYREKFEGRVTITADTSTNTAYMELSSLRSEDTAVYYCVRSGREFDYWGQGTLVTVSSASTKGPSVFPLAPSSKSTSGGTAALGCLVKDYFPEPVTVSWNSGALTSGVHTFPAVLQSSGLYSLSSVVTVPSSSLGTQTYICNVNHKPSNTKVDKKVEPKSCDKTHTCPPCPAPELLGGPSVFLFPPKPKDTLMISRTPEVTCVVVDVSHEDPEVKFNWYVDGVEVHNAKTKPREEQYNSTYRVVSVLTVLHQDWLNGKEYKCKVSNDALPMPIEETISKAKGQPREPQVYTLPPSRCELTKNQVSLSCAVKGFYPSDIAVEWESNGQPENNYKTTPPVLDSDGSFFLVSKLTVDKSRWQQGNVFSCSVMHEALHNHYTQKSLSLSP
light: DIQMTQSPSSLSASVGDRVTITCRASQDIHKYIAWYQQKPGQAPRLLIQYTSTLQPGVPSRFSGSGSGTDYTFTISSLQPEDIATYYCLQYEQLRTFGGGTKVEIKRTVAAPSVFIFPPSDEQLKSGTASVVCLLNNFYPREAKVQWKVDNALQSGNSQESVTEQDSKDSTYSLSSTLTLSKADYEKHKVYACEVTHQGLSSPVTKSFNRGEC
B2: H240-Kn061 (Y235W)/H240-Hl071/L73-k0 (antibody, human IgG1, kappa)
heavy 1: B1 heavy 1 with T234W
heavy 2: B1 heavy 2
light: B1 light
notes: also called H240-Kn061 Y2351N
B3: GpH7-A5/GpH7-B3 variant G237_11K/GpL16-k0 (antibody, human IgG1, kappa)
heavy 1: not shown
heavy 2: not shown
light: DIVMTQSPLSLPVTPGEPASISCQASESLVHSNRNTYLHWYLQKPGQSPQLLIYKVSNRFSGVPDRFSGSGSGTDFTLKISRVEAEDVGVYYCSQNTHVPPTFGQGTKVEIERTVAAPSVFIFPPSDEQLKSGTASVVCLLNNFYPREAKVQWKVDNALQSGNSQESVTEQDSKDSTYSLSSTLTLSKADYEKHKVYACEVTHQGLSSPVTKSFNRGEC
notes: Heterodimerized anti-glypican-3 IgG1; substitution in only one H chain; also called G237K; He Ab
B4: GpH7-A5/GpH7-B3 variant P238_18N/GpL16-k0 (antibody, human IgG1, kappa)
heavy 1: not shown
heavy 2: not shown
light: B3 light
notes: Heterodimerized anti-glypican-3 IgG1; substitution in only one H chain; also called P238N; He Ab
B5: GpH7-A5/GpH7-B3 variant G237_14T/GpL16-k0 (antibody, human IgG1, kappa)
heavy 1: not shown
heavy 2: not shown
light: B3 light
notes: Heterodimerized anti-glypican-3 IgG1; substitution in only one H chain; also called G237T; He Ab
B6: GpH7-A5/GpH7-B3 variant G237_12R/GpL16-k0 (antibody, human IgG1, kappa)
heavy 1: not shown
heavy 2: not shown
light: B3 light
notes: Heterodimerized anti-glypican-3 IgG1; substitution in only one H chain; also called G237R; He Ab
B7: GpH7-A5/GpH7-B3 variant S239_04F/GpL16-k0 (antibody, human IgG1, kappa)
heavy 1: not shown
heavy 2: not shown
light: B3 light
notes: Heterodimerized anti-glypican-3 IgG1; substitution in only one H chain; also called S239F; He Ab
B8: GpH7-A5/GpH7-B3 variant P238_07I/GpL16-k0 (antibody, human IgG1, kappa)
heavy 1: not shown
heavy 2: not shown
light: B3 light
notes: Heterodimerized anti-glypican-3 IgG1; substitution in only one H chain; also called P238I; He Ab
B9: GpH7-A5/GpH7-B3 variant P238_13S/GpL16-k0 (antibody, human IgG1, kappa)
heavy 1: not shown
heavy 2: not shown
light: B3 light
notes: Heterodimerized anti-glypican-3 IgG1; substitution in only one H chain; also called P238S; He Ab
B10: GpH7-A5/GpH7-B3 variant G237_16H/GpL16-k0 (antibody, human IgG1, kappa)
heavy 1: not shown
heavy 2: not shown
light: B3 light
notes: Heterodimerized anti-glypican-3 IgG1; substitution in only one H chain; also called G237H; He Ab
B11: GpH7-A5/GpH7-B3 variant S239_11K/GpL16-k0 (antibody, human IgG1, kappa)
heavy 1: not shown
heavy 2: not shown
light: B3 light
notes: Heterodimerized anti-glypican-3 IgG1; substitution in only one H chain; also called S239K; He Ab
B12: GpH7-A5/GpH7-B3 variant S239_12R/GpL16-k0 (antibody, human IgG1, kappa)
heavy 1: not shown
heavy 2: not shown
light: B3 light
notes: Heterodimerized anti-glypican-3 IgG1; substitution in only one H chain; also called S239R; He Ab
B13: GpH7-A5/GpH7-B3 variant S239_15Y/GpL16-k0 (antibody, human IgG1, kappa)
heavy 1: not shown
heavy 2: not shown
light: B3 light
notes: Heterodimerized anti-glypican-3 IgG1; substitution in only one H chain; also called S239Y; He Ab
B14: GpH7-A5/GpH7-B3 variant P238_14T/GpL16-k0 (antibody, human IgG1, kappa)
heavy 1: not shown
heavy 2: not shown
light: B3 light
notes: Heterodimerized anti-glypican-3 IgG1; substitution in only one H chain; also called P238T; He Ab
B15: GpH7-A5/GpH7-B3 variant P238_11K/GpL16-k0 (antibody, human IgG1, kappa)
heavy 1: not shown
heavy 2: not shown
light: B3 light
notes: Heterodimerized anti-glypican-3 IgG1; substitution in only one H chain; also called P238K; He Ab
B16: GpH7-A5/GpH7-B3 variant P238_12R/GpL16-k0 (antibody, human IgG1, kappa)
heavy 1: not shown
heavy 2: not shown
light: B3 light
notes: Heterodimerized anti-glypican-3 IgG1; substitution in only one H chain; also called P238R; He Ab
B17: GpH7-A5/GpH7-B3 variant P238_01G/GpL16-k0 (antibody, human IgG1, kappa)
heavy 1: not shown
heavy 2: not shown
light: B3 light
notes: Heterodimerized anti-glypican-3 IgG1; substitution in only one H chain; also called P238G; He Ab
B18: GpH7-A5/GpH7-B3 variant P238_02A/GpL16-k0 (antibody, human IgG1, kappa)
heavy 1: not shown
heavy 2: not shown
light: B3 light
notes: Heterodimerized anti-glypican-3 IgG1; substitution in only one H chain; also called P238A; He Ab
B19: GpH7-A5/GpH7-B3 variant S239_16H/GpL16-k0 (antibody, human IgG1, kappa)
heavy 1: not shown
heavy 2: not shown
light: B3 light
notes: Heterodimerized anti-glypican-3 IgG1; substitution in only one H chain; also called S239H; He Ab

Tests used:
FcgRIIb = target: T1, FcgRIIb; assay: SPR (Biacore); KD of H240-Kn061/H240-Hl071/L73-k0 divided by KD of the variant
FcgRIIIa F = target: T3, FcgRIIIa F (human, UniProt P08637 17-208); assay: as above
T3 construct: extracellular domain; also called FcγRIIIa F; 3aF; not shown: His tag attached to the C terminus

FcgRIIIa V = target: T4, FcgRIIIa V (human, UniProt P08637 17-208); assay: as above
T4 construct: extracellular domain; also called FcγRIIIa V; not shown: His tag attached to the C terminus

[1] = target: T5, FcγRIa extracellular domain with C-terminal His tag (human, UniProt P12314 16-292); assay: SPR (Biacore); ratio of He/Con_1a (FcγRIa) to He/Con_2b (FcγRIIb) of the same antibody
T5 construct: extracellular domain; Soluble receptor expressed in FreeStyle293 cells, used as analyte in Biacore; also called FcgRI; CD64; not shown: His tag at the C terminus

[2] = target: T5, FcγRIa extracellular domain with …; assay: SPR (Biacore), antibody captured via antigen peptide, FcγR as analyte; binding relative to GpH7-A5/GpH7-B3/GpL16-k0 = 100
[3] = target: T2, FcγRIIb extracellular domain with …; assay: as above

T5 sequence (P12314 16-292): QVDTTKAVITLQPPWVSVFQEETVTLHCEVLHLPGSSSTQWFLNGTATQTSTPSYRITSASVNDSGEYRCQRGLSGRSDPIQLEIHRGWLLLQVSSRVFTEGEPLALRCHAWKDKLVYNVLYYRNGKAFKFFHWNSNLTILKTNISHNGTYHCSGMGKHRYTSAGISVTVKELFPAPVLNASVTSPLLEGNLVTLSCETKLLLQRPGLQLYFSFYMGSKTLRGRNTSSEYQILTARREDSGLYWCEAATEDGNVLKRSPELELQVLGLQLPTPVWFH
T3 sequence (P08637 17-208): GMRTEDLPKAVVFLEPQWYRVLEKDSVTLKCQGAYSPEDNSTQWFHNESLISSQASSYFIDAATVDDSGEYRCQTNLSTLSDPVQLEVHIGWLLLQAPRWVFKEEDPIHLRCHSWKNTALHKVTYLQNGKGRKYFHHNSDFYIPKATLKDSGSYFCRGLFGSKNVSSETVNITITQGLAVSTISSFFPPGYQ
T4 sequence (P08637 17-208 F176V limits assumed): as the sequence (P08637 17-208) above, with F160V counted along it

| Binder | Relative KD (FcgRIIb) | Relative KD (FcgRIIIa F) | Relative KD (FcgRIIIa V) | Ia/IIb He_1a/2b [1] | He/Con_1a [2] | He/Con_2b [3] |
| --- | --- | --- | --- | --- | --- | --- |
| B1 | 0.6 | 0.9 | 1.1 | – | – | – |
| B2 | 1.3 | 1.1 | 1.3 | – | – | – |
| B3 | – | – | – | 7.05 | 63.3 % of control (GpH7-A5/GpH7-B3/GpL16-k0 = 100) | – |
| B4 | – | – | – | 1.27 | 93.3 % of control (GpH7-A5/GpH7-B3/GpL16-k0 = 100) | 73.2 % of control (GpH7-A5/GpH7-B3/GpL16-k0 = 100) |
| B5 | – | – | – | 1.5 | 82.3 % of control (GpH7-A5/GpH7-B3/GpL16-k0 = 100) | 54.8 % of control (GpH7-A5/GpH7-B3/GpL16-k0 = 100) |
| B6 | – | – | – | 6.71 | 65.8 % of control (GpH7-A5/GpH7-B3/GpL16-k0 = 100) | – |
| B7 | – | – | – | 2.13 | 93.8 % of control (GpH7-A5/GpH7-B3/GpL16-k0 = 100) | 44.1 % of control (GpH7-A5/GpH7-B3/GpL16-k0 = 100) |
| B8 | – | – | – | 1.24 | 99.1 % of control (GpH7-A5/GpH7-B3/GpL16-k0 = 100) | 80 % of control (GpH7-A5/GpH7-B3/GpL16-k0 = 100) |
| B9 | – | – | – | 1.37 | 96.6 % of control (GpH7-A5/GpH7-B3/GpL16-k0 = 100) | 70.4 % of control (GpH7-A5/GpH7-B3/GpL16-k0 = 100) |
| B10 | – | – | – | 1.32 | 72.6 % of control (GpH7-A5/GpH7-B3/GpL16-k0 = 100) | 55.2 % of control (GpH7-A5/GpH7-B3/GpL16-k0 = 100) |
| B11 | – | – | – | 2.75 | 68 % of control (GpH7-A5/GpH7-B3/GpL16-k0 = 100) | 24.7 % of control (GpH7-A5/GpH7-B3/GpL16-k0 = 100) |
| B12 | – | – | – | 2.21 | 86.5 % of control (GpH7-A5/GpH7-B3/GpL16-k0 = 100) | 39.1 % of control (GpH7-A5/GpH7-B3/GpL16-k0 = 100) |
| B13 | – | – | – | 2.57 | 89.8 % of control (GpH7-A5/GpH7-B3/GpL16-k0 = 100) | 34.9 % of control (GpH7-A5/GpH7-B3/GpL16-k0 = 100) |
| B14 | – | – | – | 1.8 | 91.1 % of control (GpH7-A5/GpH7-B3/GpL16-k0 = 100) | 50.7 % of control (GpH7-A5/GpH7-B3/GpL16-k0 = 100) |
| B15 | – | – | – | 4.27 | 77.4 % of control (GpH7-A5/GpH7-B3/GpL16-k0 = 100) | 18.1 % of control (GpH7-A5/GpH7-B3/GpL16-k0 = 100) |
| B16 | – | – | – | 1.5 | 77.3 % of control (GpH7-A5/GpH7-B3/GpL16-k0 = 100) | 51.4 % of control (GpH7-A5/GpH7-B3/GpL16-k0 = 100) |
| B17 | – | – | – | 1.66 | 92.9 % of control (GpH7-A5/GpH7-B3/GpL16-k0 = 100) | 56 % of control (GpH7-A5/GpH7-B3/GpL16-k0 = 100) |
| B18 | – | – | – | 1.66 | 95.2 % of control (GpH7-A5/GpH7-B3/GpL16-k0 = 100) | 57.4 % of control (GpH7-A5/GpH7-B3/GpL16-k0 = 100) |
| B19 | – | – | – | 1.78 | 88.1 % of control (GpH7-A5/GpH7-B3/GpL16-k0 = 100) | 49.4 % of control (GpH7-A5/GpH7-B3/GpL16-k0 = 100) |
